Test results reported in patent US20230008090A1.

Assays:
[1] = target: cynomolgus monkey EGFR on CHOK1-cynoPro1 (EGFR+/CD3-) cells (cynomolgus monkey); test: flow cytometry on CHOK1-cynoPro1 cells
[2] = target: cynomolgus monkey CD3 on cynomolgus monkey PBMC / T cells (cynomolgus monkey) (UniProt Q95LI5); test: flow cytometry on cyno T cells (cynomolgus monkey PBMC)
[3] = target: human CD3 on Jurkat.2B8 (CD3+/EGFR-) cells (human) (UniProt P07766); test: flow cytometry on Jurkat.2B8 (CD3+/EGFR-) cells
Sequence of human CD3 on Jurkat.2B8 (CD3+/EGFR-) cells (human) (P07766 23-207): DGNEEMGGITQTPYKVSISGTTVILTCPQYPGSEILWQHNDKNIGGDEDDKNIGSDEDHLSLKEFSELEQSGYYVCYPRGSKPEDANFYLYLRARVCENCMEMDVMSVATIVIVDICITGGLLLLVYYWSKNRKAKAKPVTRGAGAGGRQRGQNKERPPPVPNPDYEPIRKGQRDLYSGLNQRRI

[4] = target: human EGFR on tumor cells (A431, HT-29, MCF-7) (human) (UniProt P00533); test: flow cytometry on A431 (EGFR+/CD3-) cells

Sequence of cynomolgus monkey CD3 on cynomolgus monkey PBMC / T cells (cynomolgus monkey) (Q95LI5 22-198): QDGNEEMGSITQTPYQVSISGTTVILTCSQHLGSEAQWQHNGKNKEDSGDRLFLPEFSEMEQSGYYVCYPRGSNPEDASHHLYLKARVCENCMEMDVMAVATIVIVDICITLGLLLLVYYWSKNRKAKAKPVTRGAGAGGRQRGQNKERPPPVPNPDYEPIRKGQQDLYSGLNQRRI

- Top MFI [1]: 38 MFI
- Top MFI [2]: 210 MFI
- Top MFI [3]: 235 MFI
- Top MFI [4]: 137 MFI
Substance: IgG4 isotype control (antibody)
